The target in test [1] is T1, hCMET-Fc (The natural ectodomain is cleaved by furin after residue 307 into disulfide-linked alpha and beta chains. It is given here as one continuous stretch.).
T1 construct: member of the panel m9
T1 chain: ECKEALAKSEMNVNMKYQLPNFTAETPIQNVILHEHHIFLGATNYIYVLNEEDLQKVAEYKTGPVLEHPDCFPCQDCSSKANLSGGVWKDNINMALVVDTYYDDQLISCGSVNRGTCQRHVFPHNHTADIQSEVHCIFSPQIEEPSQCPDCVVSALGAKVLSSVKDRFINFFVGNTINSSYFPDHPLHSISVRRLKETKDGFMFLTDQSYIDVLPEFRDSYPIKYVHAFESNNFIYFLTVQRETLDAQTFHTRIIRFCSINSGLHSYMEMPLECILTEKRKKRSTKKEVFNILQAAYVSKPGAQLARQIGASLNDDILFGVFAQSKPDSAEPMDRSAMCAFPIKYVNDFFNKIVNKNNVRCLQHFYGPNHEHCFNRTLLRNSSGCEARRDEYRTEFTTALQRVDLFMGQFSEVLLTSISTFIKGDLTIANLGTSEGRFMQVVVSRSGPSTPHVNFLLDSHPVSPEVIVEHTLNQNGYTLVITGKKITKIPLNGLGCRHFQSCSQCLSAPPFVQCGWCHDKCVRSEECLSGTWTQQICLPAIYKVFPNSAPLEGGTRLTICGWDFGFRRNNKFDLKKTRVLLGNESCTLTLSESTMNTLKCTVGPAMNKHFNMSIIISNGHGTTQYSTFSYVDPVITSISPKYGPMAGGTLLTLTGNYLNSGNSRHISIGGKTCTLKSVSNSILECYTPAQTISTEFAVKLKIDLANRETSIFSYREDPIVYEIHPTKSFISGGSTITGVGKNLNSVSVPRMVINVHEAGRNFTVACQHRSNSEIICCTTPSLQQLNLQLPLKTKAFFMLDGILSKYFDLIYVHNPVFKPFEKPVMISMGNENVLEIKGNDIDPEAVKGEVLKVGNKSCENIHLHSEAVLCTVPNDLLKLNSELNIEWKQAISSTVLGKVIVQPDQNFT
In words: direct ELISA on coated protein, IgG1. (An ELISA detects its analyte on a solid surface through an enzyme-linked reagent.)

Test [2] addresses T2, hICAM-1-Fc (human, UniProt P05362).
T2 construct: Fc fusion; member of the panel m9
In words: direct ELISA on coated protein, IgG1.

Test [3] deals with T3, hDR3-Fc (human, UniProt Q93038).
T3 construct: Fc fusion; member of the panel m9
T3 sequence (looked up): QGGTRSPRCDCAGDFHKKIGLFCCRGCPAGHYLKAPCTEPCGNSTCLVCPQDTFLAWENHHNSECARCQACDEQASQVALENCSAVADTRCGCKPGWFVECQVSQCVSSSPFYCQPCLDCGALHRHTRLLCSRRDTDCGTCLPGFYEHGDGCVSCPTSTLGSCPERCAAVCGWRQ
As to the kind of experiment: direct ELISA on coated protein, IgG1.

Test [4] addresses T4, h4-1BB-Fc.
T4 construct: member of the panel m9
As to the kind of experiment: direct ELISA on coated protein, IgG1.

Test [5] deals with T5, hVCAM-1 (human, UniProt P19320).
T5 construct: purified recombinant protein; member of the panel m9
T5 sequence (looked up): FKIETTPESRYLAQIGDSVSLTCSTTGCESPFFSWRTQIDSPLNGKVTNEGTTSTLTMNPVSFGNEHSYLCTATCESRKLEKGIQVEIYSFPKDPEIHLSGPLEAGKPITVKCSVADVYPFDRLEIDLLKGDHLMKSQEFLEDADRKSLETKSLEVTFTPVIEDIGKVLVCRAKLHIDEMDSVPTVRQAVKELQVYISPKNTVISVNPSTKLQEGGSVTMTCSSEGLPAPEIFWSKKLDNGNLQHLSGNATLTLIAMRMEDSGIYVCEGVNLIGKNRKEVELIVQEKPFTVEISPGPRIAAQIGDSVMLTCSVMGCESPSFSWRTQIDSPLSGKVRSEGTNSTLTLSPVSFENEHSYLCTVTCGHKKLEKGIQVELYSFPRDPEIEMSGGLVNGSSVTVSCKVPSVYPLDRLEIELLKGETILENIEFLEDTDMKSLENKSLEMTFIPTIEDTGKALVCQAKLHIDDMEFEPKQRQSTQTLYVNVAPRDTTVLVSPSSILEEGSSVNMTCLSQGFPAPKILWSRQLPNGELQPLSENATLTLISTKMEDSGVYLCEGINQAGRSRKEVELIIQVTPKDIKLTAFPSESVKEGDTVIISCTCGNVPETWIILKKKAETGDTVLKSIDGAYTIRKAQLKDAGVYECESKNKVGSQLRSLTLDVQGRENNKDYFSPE
In words: direct ELISA on coated protein, IgG1.

Test [6] concerns the target T6, cynomolgus monkey C-KIT-Fc (cynomolgus monkey).
T6 construct: also called cyno C-KIT-Fc
In words: direct titration ELISA on coated C-KIT-Fc, IgG1 format.
Experimental: Direct titration ELISA for IgG binding to human and cyno C-KIT-Fc proteins.
To coat Greiner Bio-One High bind ELISA plates, target proteins were diluted to 1 μg/ml in carbonate buffer and added at 100 μl per well, at 4° C., o/n. Coated plates were washed 3× with PBS pH7.4, blocked with 1% BSA in PBS (380 μl/well) for 1 hr at RT, then washed 3× with PBS-Tween 20 (PBST). C-KIT antibodies (100 μl/well; diluted in PBST) were then added and then incubated 1 hr at RT. Plates were then washed 3× with PBST and goat anti-human kappa chain-HRP added (100 μl/well) at RT, for 1 hr. Plates were then washed 3× with PBST and twice with PBS before the addition of 100 μl TMB per well. Reactions were stopped by adding 100 μl 2M H₂SO₄/well and OD was read on a plate reader at 450 nm.

Test [7] addresses T3, hDR3-Fc. In words: direct ELISA on coated protein, IgG1. The source holds these as a separate data set.
The target in test [8] is T7, hVCAM-Fc.
T7 construct: member of the panel m9
T7 chain: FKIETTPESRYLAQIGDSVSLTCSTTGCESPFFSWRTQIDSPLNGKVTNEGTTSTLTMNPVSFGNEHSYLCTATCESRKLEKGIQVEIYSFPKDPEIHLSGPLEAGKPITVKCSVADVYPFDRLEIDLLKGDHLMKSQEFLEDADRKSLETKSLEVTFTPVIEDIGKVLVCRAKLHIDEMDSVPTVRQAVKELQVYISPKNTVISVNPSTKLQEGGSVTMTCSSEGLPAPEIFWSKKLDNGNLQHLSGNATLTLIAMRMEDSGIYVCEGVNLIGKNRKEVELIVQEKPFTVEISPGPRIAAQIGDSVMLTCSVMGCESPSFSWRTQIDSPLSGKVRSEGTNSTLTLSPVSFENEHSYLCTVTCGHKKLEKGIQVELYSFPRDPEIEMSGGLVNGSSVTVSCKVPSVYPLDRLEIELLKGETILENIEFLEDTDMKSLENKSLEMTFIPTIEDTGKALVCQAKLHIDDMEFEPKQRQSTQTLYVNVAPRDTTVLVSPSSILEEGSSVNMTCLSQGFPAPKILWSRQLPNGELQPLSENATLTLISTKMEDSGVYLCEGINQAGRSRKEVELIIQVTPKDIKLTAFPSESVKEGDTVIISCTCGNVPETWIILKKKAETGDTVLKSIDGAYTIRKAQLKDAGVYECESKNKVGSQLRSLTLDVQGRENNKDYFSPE
As to the kind of experiment: direct ELISA on coated protein, IgG1.

The target of test [9] is T8, hBAFFR-Fc (human, UniProt Q96RJ3).
T8 construct: Fc fusion; member of the panel m9
As to the kind of experiment: direct ELISA on coated protein, IgG1.

The target of test [10] is T4, h4-1BB-Fc. In words: direct ELISA on coated protein, IgG1. The source holds these as a separate data set.
For test [11], the target named is T9, hDR6-Fc (human, UniProt O75509).
T9 construct: Fc fusion; member of the panel m9
T9 sequence (looked up): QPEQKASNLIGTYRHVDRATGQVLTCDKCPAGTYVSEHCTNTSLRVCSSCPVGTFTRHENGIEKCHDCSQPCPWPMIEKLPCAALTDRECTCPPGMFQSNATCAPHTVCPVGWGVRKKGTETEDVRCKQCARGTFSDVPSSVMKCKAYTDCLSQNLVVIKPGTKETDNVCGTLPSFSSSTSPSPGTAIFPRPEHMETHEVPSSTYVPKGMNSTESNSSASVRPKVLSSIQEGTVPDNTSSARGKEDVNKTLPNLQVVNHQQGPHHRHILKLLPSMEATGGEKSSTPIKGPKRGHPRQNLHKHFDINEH
As to the kind of experiment: direct ELISA on coated protein, IgG1.

Test [12] deals with T10, hCD4 (human, UniProt P01730).
T10 construct: purified recombinant protein; member of the panel m9
As to the kind of experiment: direct ELISA on coated protein, IgG1.

The target in test [13] is T11, hLTBR-Fc (human, UniProt P36941).
T11 construct: Fc fusion; member of the panel m9
As to the kind of experiment: direct ELISA on coated protein, IgG1.

Like-named read-outs stand apart in the source and are kept apart here.

T4 sequence (chain, as listed by the source limits assumed): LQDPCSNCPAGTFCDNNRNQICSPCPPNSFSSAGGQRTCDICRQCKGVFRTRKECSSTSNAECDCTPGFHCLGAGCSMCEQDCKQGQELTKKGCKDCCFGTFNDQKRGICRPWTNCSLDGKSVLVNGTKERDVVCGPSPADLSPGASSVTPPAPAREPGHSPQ
T8 sequence (Q96RJ3 7-71 limits assumed): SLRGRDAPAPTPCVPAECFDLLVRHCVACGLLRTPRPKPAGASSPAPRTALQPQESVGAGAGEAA
T11 sequence (P36941 28-227 limits assumed): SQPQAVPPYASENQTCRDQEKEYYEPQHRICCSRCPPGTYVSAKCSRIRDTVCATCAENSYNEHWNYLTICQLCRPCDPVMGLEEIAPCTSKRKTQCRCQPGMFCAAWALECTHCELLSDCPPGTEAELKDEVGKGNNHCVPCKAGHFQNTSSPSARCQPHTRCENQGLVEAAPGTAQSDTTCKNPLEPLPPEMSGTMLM
T2 sequence (P05362 28-480 limits assumed): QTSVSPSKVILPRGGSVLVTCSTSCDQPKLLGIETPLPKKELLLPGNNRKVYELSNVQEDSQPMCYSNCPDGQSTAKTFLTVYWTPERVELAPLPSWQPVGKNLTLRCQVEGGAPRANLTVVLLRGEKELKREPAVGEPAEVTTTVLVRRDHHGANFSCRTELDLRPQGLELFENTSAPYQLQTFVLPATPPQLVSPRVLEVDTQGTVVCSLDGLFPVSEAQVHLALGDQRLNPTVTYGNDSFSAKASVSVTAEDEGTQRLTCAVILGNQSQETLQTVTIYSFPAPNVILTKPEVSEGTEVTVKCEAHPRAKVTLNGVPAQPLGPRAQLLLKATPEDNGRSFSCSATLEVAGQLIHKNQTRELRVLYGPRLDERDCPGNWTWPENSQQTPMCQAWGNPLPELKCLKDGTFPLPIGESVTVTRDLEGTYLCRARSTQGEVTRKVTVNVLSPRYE

B1: humanized h37M, human IgG1 (antibody, V domains shown)
VH: QVQLVQSGAEVKKPGASVKLSCKASGYTFTDYYINWVRQAPGKGLEWIARIYPGSGNTYYNEKFKGRATLTADKSTSTAYMQLSSLRSEDTAVYFCARGVYYFDYWGQGTTVTVSS
VL: DIVMTQSPSSLSASVGDRVTITCKASQNVRTNVAWYQQKPGKAPKALIYSASYRYSGVPDRFTGSGSGTDFTLTISSLQPEDFADYFCQQYNSYPRTFGGGTKVEIK
notes: human IgG1; terbium-labelled as the tracer of the HTRF assays; also called C-KIT-h37M; h37M-IgG1
For the molecule B1, the binding result in test [1], in [2], in test [3], in [4] and in [5] was “no binding (tested: 1 µg/ml)” in each case.

B2: MH5, human IgG1 (antibody, V domains shown)
VH: QVQLVQSGAEVKKPGASVKVSCKASGYTFTDYYMNWVRQAPGQGLEWMGRIYPGSGNTYYAQKFQGRVTMTRDTSTSTVYMELSSLRSEDTAVYYCARGVYYYDYWGQGTLVTVSS
VL: DIQMTQSPSSLSASVGDRVTITCRASQGIRTNLAWFQQKPGKAPKSLIYSASSLQSGVPSRFSGSGSGTDFTLTISSLQPEDFATYYCQQYANYPRTFGGGTKVEIK
notes: IgG1; also called C-KIT-MH5; C-KIT-MHS
The term EC50 (read off the curve) denotes the concentration at which the effect is half-maximal. On to B2, for which the “EC50 (read off the curve)” value in [6] was ~0.1 µg/mL.

B3: MH5.22 (antibody, IgG1, V domains shown)
VH: QVQLVQSGAEVKKPGASVKVSCKASGYTFTDFYMNWVRQAPGQGLEWMGRIYPASGNTYYAQKFQGRVTMTRDTSTSTVYMELSSLRSEDTAVYYCARGVWYYDYWGQGTLVTVSS
VL: DIQMTQSPSSLSASVGDRVTITCRASQGIRTNLAWFQQKPGKAPKSLIYAASSLQSGVPSRFSGSGSGTDFTLTISSLQPEDFATYYCQQYANYPRTFGGGTKVEIK
notes: IgG1; also called C-KIT-MH5.22
As for B3, the binding result in [7], in [8], in [9], in test [10], in test [11] and in [12] was “no binding (tested: 1 µg/ml)” each time. Moreover, the binding result in [13] is listed as “no binding (tested: 1 µg/ml)”.
